Assay results reported in the nanobody polyreactivity screen of Harvey et al. (2022).

Assay: yeast display, Sf9 membrane polyspecificity reagent, FACS + sequencing; frameworks hold sequencing errors
Summary of the method: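 In a synthetic yeast display library (Saccharomyces cerevisiae BJ5465), nanobody expression was induced with galactose for 36–48 hours. FACS gates were set low and high (top ~1%) using anti-HA fluorescence for expression and streptavidin fluorescence for binding of the Sf9 membrane reagent. Each polyreactivity label is drawn from the gate of origin.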

Row | Sequence | polyreactivity (PSR sort gate)
1 | QVQLLESVGGLVQAGGSLRLSSMASGSILGDRMSWYRHAPGKEHELVATIYDGGITYYADSMKGRFTISRDNAKNTVYLQMNSLRPEDSAVYYCGASFEGYRYHVYCGQGTQVTVSS | low polyreactivity
2 | QVQLLETCGGLVHAGCTLRLSCAPSRSTFRYNDMGRYRQAPGKERELDASISWSGGDTYYADSVKGRFTISRDNAKNTVYLQMNSLKPEDTAVYYCDKGNIWISRLMDDWGQGTQVTVSS | low polyreactivity
3 | QVQLLETGGGLVQAGGSLRLSCAASGIPFDIYTMGWYIQAPGKERELVAASSYSGGTTYYADSVKGRFTISRDNAKNTVYLQMISLKPEDTAVYYCAAYEGTYFTEVDYWGQGTQVTVSS | low polyreactivity
4 | QVQLLETGGGLVQAGGSLRLSCAASGSTFTIYAMGLYRQAPGKEMELVAVITRGSTNYADSVKGRFTISRDNAKNTVYLQMYSLKPEDSAVYYCNARRYGKVVRSRYNYWGQGTQVTVSS | high polyreactivity
5 | QVQLQDSGGGLVQAGGSLRLICAASVTIFSYSDLGWYRQAPGKERKFVAGIGFGSNSNFADSVRGRFTISRDNAKNTVYLQMNSLKPEDTAVYYCAAVWFDYSTHRYWGQGTKVTVSS | high polyreactivity
6 | QVQLQDSGGVMVLACGSLRLSCAESGYISWSFTMGWYRKAPGKEREFVAGITYGGITYYADSVKGRFTISRDNAKNSVYLQMNRLKPEDTAVYYCAAPQSYPYVYVYWGHGTQVTVSS | high polyreactivity
7 | QVQLQEGGGLVQAGGSLRLSCPASGYISSRPAMGCYRQAPGKERAFVATIADGTSTYYADSVKCRFTISRDNAKNTVYLQMNSLKPEDTEVYYCAAAYNTEFYLSYWGQGTQVTVSS | high polyreactivity
8 | QVQLQERGGALVQAGGSLRLICAATGNITVTGFMGWYRQSPGKERELVASIAIGGTTYYADSVKGRFSISRDNAKNTVYLQRNSLKQEDTAVSYGAARYLYYAYSYWGQGTQVTVSS | low polyreactivity
9 | QVQLQERGGGLVQAGGDLRLSCAASGNIFRDYIMGWYRQAPGKEREFVAGIDRGANTNYADSVKGRFTISRDNAKNTVYLQMNSLKPEDTAVYYCAVHTAIVPDFIYWGQGTQVTVSS | low polyreactivity
10 | QVQLQERGGGLVQAGGRLRLSCMASGSILGDRMSWYRQAPGKEHELVATIYDGGITYYADSMKVRFTISRDNANNTVDLQMKSQRPEDTAVYFCGASFEGYRYHVFCGQGTQVTVSS | low polyreactivity
11 | QVQLQERGGGLVQAGGTLRLSCAASGSFSADEDMGWYRQAQGKEREFVAGISVGGNTNYADSVKGRFTISRENAKNTVYLQINSLKPEDTAVYYCAVLQDVYDALDYWAQGTQVTVSS | high polyreactivity
12 | QVQLQERGGGLVQARGSLRLSCAASGNISYRTNMGWYRPAPGKERELVASIGGGTTNYADSVKGRFTISRDNAKKTVYLQMNSLKPVDTAVYYCAVVGTTQFRHRYWGQGTQVTASS | high polyreactivity
13 | QVQLQERGGRLVQAGGSLRLSCAASGSIFTQATMGCDRQAPGKERELVAAINFGSSTYYADSVKGRFTISRDNAKSTVYLQMNSLKPEDTAVYYCAVRALWYDFHDYWGQGTQVTVSS | high polyreactivity
14 | QVQLQERGSGLVQAGGSLRLTCAESGAIFPAYLMGWYRQPPGKERELVAGISYGSITYCADSVKGRFNIIRDNAKNTVYLQMNSLKPEDTAVKYCAVWRPGGDEYYYWGQGTQVTVSS | low polyreactivity
15 | QVQLQERSGGLVQAGGSLRLSCAASGYIFNNVNMGWYSQSPGKEREFVAAVGSGSSTNYADSVKGRFTISRDNTKNTGYLHMNSLKPEDTAVYYCNAVRRTGGHGDYWGLGTQVTVSS | high polyreactivity
16 | QVQLQESAGGLVQAGGSLRLRCSASGYISCDASKGWYRQAPGKERELAASITKGSSTNYADSVKGRFTIRDNAKNSVNLQMNSLKPEDTAVCYCAVTYPYWGDYTYWGQGTQVTVSS | low polyreactivity
17 | QVQLQESCGRLVQAGGILRLSCAACGNIFPSAVMGWYRQALGTEREFVATLNSGSNPYYADSVKGRFTISRDNAKNTVYLQLNSLKLEDTAVYYCAAYYKLPAWHTYWGQGTQVTVSS | low polyreactivity
18 | QVQLQESDGGLVQAGGSLRLICAASGSISPQYYMGWYRQAPGKEREFVAISKGTTTYYADSVKGRLTISRVNAKNTVYLQMNSLKPEDTAVYCCAAGRWLQKVHAYWDQGTQVTVSS | low polyreactivity
19 | QVQLQESDGGLVQAGGSLRLSCAASGSISPQYYMGWYRQAPGKEREFVAISKGTTTYYADSVKGRLTISRVNAKNTVYLQMNSLKPEDTAVYCCAAGRWLQNVHAYWDQGTQVTVSS | low polyreactivity
20 | QVQLQESFVGLVQAGGSLRLICAASGNIFPTDRMGWYRQAPGKELEFVATISHGGSTNYADSVKGRFTISRDNAKHTVYLQMNSLKPEDTAVYYCAVWSLGRWRNYYWGQGTQVTVIS | low polyreactivity
21 | QVQLQESGCGLVQAGGSLRLSCAASGYISSWYPMGWYRQAPGKEREFVATIAPGATTYYADSVKGRFTISRDYSINTVYLQMNSLKPEDTAVYYCAAGPENNDFYSYWGQGTQVTVSS | low polyreactivity
22 | QVQLQESGDGLVQAGGSLRLSCAASGTIFTPHQMGWYRQAPGNEREFVATIDYGSSTNYADSLKGLFTISRDNAKNTMYPQMNSLKPEDTAVYYCANYYWGQGTQVTVSS | low polyreactivity

Row | Sequence | polyreactivity (PSR sort gate)
23 | QVQLQESGGGKVHAGGSLRLSCAASGSISYASGMVWYRQAPGKEREFVASIDPGAITNYADSVKGRFTNSHDNAKNTVYLQMNSLKPEDTAVYYCAARVSTTDSHGYWGQGTQVTVSS | high polyreactivity
24 | QVQLQESGGGLEQAGGSLRLSCAASGTNTVLYKMGWFRQAPGKEREFVASINFGTSTYYADSVKGRFTDSRDSAINTVFLHMNSLKPEDTSVYYCAAAYRWQDFYRYWGQGTQVTVSS | low polyreactivity
25 | QVQLQESGGGLEQAGGSLRLSCAASGYISDIGTMGWYRQAPGKEREFVATLVVGSTTNYADSVKGRFTISRDNAKNTVYLQPESGRYRGVLLRGWLLAVGKFTYWGQGTQETVSS | low polyreactivity
26 | QVQLQESGGGLEQAGGSLRLTCAASGNISVTGFMGWYRQEPGKEREIVASIGIGGTTYYADSVKGRFYISRDNAKNTVYLQMNSLKPEDTAVYYCADRYLYYAYSYWCQGTQVTVSS | low polyreactivity
27 | QVQLQESGGGLLQVGGSLRLSCAASGTIFIYGFLGWNRQAPGKERELVASINLGGITNYADSVKGRFTISRDNAKKTVYLQMISLKPEDTAVYYCAAYVVTGQNYGYWGQGTQVTVSS | low polyreactivity
28 | QVQLQESGGGLMQAGGSQRLSCAASGSISYYSDMGWYRQAPGKEREFVAGIGYGTTTNYADSVKGRFTTSRDNAKKTVYLQMISIKPEDTAVYYCAAYQGNGYEFYYWGQGTQVTVRS | low polyreactivity
29 | QVQLQESGGGLVKAGGSLRLSCAASGNISPRDAMGWYRQAPGEERDLVASNAYSAITYYADCVKGRYTISRDNAKNTVYLQINSLKPEDTEVYYCAVYQFTYPVFPAYWGQGTQVTVSS | low polyreactivity
30 | QVQLQESGGGLVKAGGSLRLSCAASGNISPRDAMGWYRQAPGEERDLVASNPYSAITYYADGVKGRYTISRDNAKNTVYLQMNSLKPEDTEVYYCAVYQFTYAVFPAYWGQGSQVTVSS | low polyreactivity
31 | QVQLQESGGGLVLAGGSLRLSCAASGSISAQAYMGWDRQAPGKEREHVAGINYGDNTNYADSVKGRFTISRDNEHRVSADEQPETGRYRGVLLRGFLELFYYYIYWGQGTQVTVSS | high polyreactivity
32 | QVQLQESGGGLVLAGGSLRLSCSASGNISVYGSMGWYRQSPGKEREFVATIDPGTNTNYADSVKDRFTISRDYAKNSVYLQMNSLKPEDTAVYYCAVEAGSDWPYRYWGQGTQVTVSS | low polyreactivity
33 | QVQLQESGGGLVQACGSLCLICAASSYFSTYYSMGWYRKAPSKGRELVAAIDSGSSTNYADSVEGRFTISRDNAKNTVYLQMISLKPGDTAVYYCAAPWGHLVVHPYRGQGTQVTVSS | high polyreactivity
34 | QVQLQESGGGLVQACGSLRLSCAASGYIFSHQYMGLYRQAPGKERELVASISPGATTNYADSVKGRLTISRDNAKNTVYLQMNSLKPEDTAVYYYAVYQILDRRLSYWGQGTQVTVSC | high polyreactivity
35 | QVQLQESGGGLVQAGDSQRLSCAASGNIFRFTDRGWYRQAPGKERELVAAINAGSTTYYADSVKGRFTISRDNAKNTVYLQMNSLKPEDTAVYYCAVYYLGSGTFGYWGQGAQVTVSS | high polyreactivity
36 | QVQLQESGGGLVQAGGCLSCTASGTIFGQGDMGWYRPAPGKERELVATINDGASTYYADSVKGRFTISRDKAKNTVYLQKNSLNQDDTAVYYCAVFTDITTYFGYWGQGTQVTVSS | low polyreactivity
37 | QVQLQESGGGLVQAGGGLRLSCAASGSILNQAPMGWYRQAPGKERELVATINEGSITNYADSVKGRFTISRDNAKNTVYLQMNSLKPEDTAVYYCAVNKYIGLDYHYWGQGTQVTVSS | low polyreactivity
38 | QVQLQESGGGLVQAGGGLRLSCAASGTISGPHVMGWYRQAPGKEREFVAAINVGANTYYADNVKGRFTISRDNAKNTVYLQMNSLNPEDTAVYYCAAVYYGDIGHEYWGQGTQVTVSC | low polyreactivity
39 | QVQLQESGGGLVQAGGSLCLSCAASSYFSTYYSMGSYRKAPSKGRELVAAIDSGSSTNYADSVEGRFTISRDNAKNTVYLQMNSLKPGDTAVYYCAARDDARRGFYYWGQGTQVTVSS | high polyreactivity
40 | QVQLQESGGGLVQAGGSLLSCAASGTISWVDEMGWYRQAPGNERELVAGIAGGGNTNYADSVKGRFTISRDNAKNTVYLKMNSLDTAVYYCAVVGFGRGTHIYWGQGTQVTVSS | high polyreactivity
41 | QVQLQESGGGLVQAGGSLLSCAASGTISWVDEMGWYRQAPGNERELVAGIAGGGNTNYADSVKGRFTISRDNAKNTVYLLMNSLDTAVYYCAVVGFGRGNHIYWGQGTQVTVSS | high polyreactivity
42 | QVQLQESGGGLVQAGGSLLSCAASGTISYYREMGWYRQSPGKERELVAGIGVGTITYYADSVKGRFTISRDNAKNTVYLQMNSLKPEDTAVYYCAAHIDGNDSNAYWGQGTQVTVSS | low polyreactivity
43 | QVQLQESGGGLVQAGGSLRLICAASGYISSWYPMGWYRQAPGKEREFVGTIAPGATTYYADSVKGRFTIIRDYEKNTVYLQMNSLKPEDTAVYYCAAGPENNDFYSYWGQGTQVTVSS | low polyreactivity
44 | QVQLQESGGGLVQAGGSLRLRCAASGTISDRAGMGWYRQAPAKNAIVATIDRGTNTNYADSVKGRFTISRDNAKNTVYLQMNSLKPEDTAVYNCAADGRYYIYLDYWGQGTQVTVSS | low polyreactivity
